Our source for the stoichiometry N (proinsulin per PDI) values is publication PMC4591687.

For this assay, the target named is PDI C56A-FLAG (human) (UniProt P07237). Briefly: co-IP.
UniProt P07237, sequence (P07237 18-508 C56A): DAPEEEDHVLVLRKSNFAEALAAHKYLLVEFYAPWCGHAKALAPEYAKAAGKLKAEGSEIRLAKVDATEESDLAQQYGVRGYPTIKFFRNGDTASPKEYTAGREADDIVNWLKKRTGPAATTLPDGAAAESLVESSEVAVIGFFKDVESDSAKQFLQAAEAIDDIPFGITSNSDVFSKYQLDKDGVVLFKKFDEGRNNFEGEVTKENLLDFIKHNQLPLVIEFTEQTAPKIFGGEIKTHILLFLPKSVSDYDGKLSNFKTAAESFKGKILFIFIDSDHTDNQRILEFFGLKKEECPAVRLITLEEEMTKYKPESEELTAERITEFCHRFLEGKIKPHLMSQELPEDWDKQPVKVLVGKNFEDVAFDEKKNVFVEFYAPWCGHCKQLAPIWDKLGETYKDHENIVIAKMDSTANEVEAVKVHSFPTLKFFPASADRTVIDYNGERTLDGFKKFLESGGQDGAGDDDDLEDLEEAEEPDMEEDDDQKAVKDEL

Regarding “Myc-epitope-tagged human C(A7)Y Akita mutant proinsulin (natural protein)”, the stoichiometry N (proinsulin per PDI) is 1.
